Data: publication doi:10.1101/413294 (bioRxiv, 2018)

B1: FH_(19-20), the C-terminal part of factor H (SCR 19-20), recombinant (domain or fragment)
chain: KDSTGKCGPPPPIDNGDITSFPLSVYAPASSVEYQCQNLYQLEGNKRITCRNGQWSEPPKCLHPCVISREIMENYNIALRWTAKQKLYSRTGESVEFVCKRGYRLSSRSHTLRTTCWDGKLEYPTCAKR
B2: factor H-related protein 5 (FHR-5), recombinant (natural protein)
chain: EGTLCDFPKIHHGFLYDEEDYNPFSQVPTGEVFYYSCEYNFVSPSKSFWTRITCTEEGWSPTPKCLRMCSFPFVKNGHSESSGLIHLEGDTVQIICNTGYSLQNNEKNISCVERGWSTPPICSFTKGECHVPILEANVDAQPKKESYKVGDVLKFSCRKNLIRVGSDSVQCYQFGWSPNFPTCKGQVRSCGPPPQLSNGEVKEIRKEEYGHNEVVEYDCNPNFIINGPKKIQCVDGEWTTLPTCVEQVKTCGYIPELEYGYVQPSVPPYQHGVSVEVNCRNEYAMIGNNMITCINGIWTELPMCVATHQLKRCKIAGVNIKTLLKLSGKEFNHNSRIRYRCSDIFRYRHSVCINGKWNPEVDCTEKREQFCPPPPQIPNAQNMTTTVNYQDGEKVAVLCKENYLLPEAKEIVCKDGRWQSLPRCVESTAYCGPPPSINNGDTTSFPLSVYPPGSTVTYRCQSFYKLQGSVTVTCRNKQWSEPPRCLDPCVVSEENMNKNNIQLKWRNDGKLYAKTGDAVEFQCKFPHKAMISSPPFRAICQEGKFEYPICE
B3: factor H-related protein 2 (FHR-2), recombinant (natural protein)
chain: EAMFCDFPKINHGILYDEEKYKPFSQVPTGEVFYYSCEYNFVSPSKSFWTRITCAEEGWSPTPKCLRLCFFPFVENGHSESSGQTHLEGDTVQIICNTGYRLQNNENNISCVERGWSTPPKCRSTISAEKCGPPPPIDNGDITSFLLSVYAPGSSVEYQCQNLYQLEGNNQITCRNGQWSEPPKCLDPCVISQEIMEKYNIKLKWTNQQKLYSRTGDIVEFVCKSGYHPTKSHSFRAMCQNGKLVYPSCEEK
B4: Factor H (FH), plasma purified (natural protein)
chain: EDCNELPPRRNTEILTGSWSDQTYPEGTQAIYKCRPGYRSLGNVIMVCRKGEWVALNPLRKCQKRPCGHPGDTPFGTFTLTGGNVFEYGVKAVYTCNEGYQLLGEINYRECDTDGWTNDIPICEVVKCLPVTAPENGKIVSSAMEPDREYHFGQAVRFVCNSGYKIEGDEEMHCSDDGFWSKEKPKCVEISCKSPDVINGSPISQKIIYKENERFQYKCNMGYEYSERGDAVCTESGWRPLPSCEEKSCDNPYIPNGDYSPLRIKHRTGDEITYQCRNGFYPATRGNTAKCTSTGWIPAPRCTLKPCDYPDIKHGGLYHENMRRPYFPVAVGKYYSYYCDEHFETPSGSYWDHIHCTQDGWSPAVPCLRKCYFPYLENGYNQNYGRKFVQGKSIDVACHPGYALPKAQTTVTCMENGWSPTPRCIRVKTCSKSSIDIENGFISESQYTYALKEKAKYQCKLGYVTADGETSGSITCGKDGWSAQPTCIKSCDIPVFMNARTKNDFTWFKLNDTLDYECHDGYESNTGSTTGSIVCGYNGWSDLPICYERECELPKIDVHLVPDRKKDQYKVGEVLKFSCKPGFTIVGPNSVQCYHFGLSPDLPICKEQVQSCGPPPELLNGNVKEKTKEEYGHSEVVEYYCNPRFLMKGPNKIQCVDGEWTTLPVCIVEESTCGDIPELEHGWAQLSSPPYYYGDSVEFNCSESFTMIGHRSITCIHGVWTQLPQCVAIDKLKKCKSSNLIILEEHLKNKKEFDHNSNIRYRCRGKEGWIHTVCINGRWDPEVNCSMAQIQLCPPPPQIPNSHNMTTTLNYRDGEKVSVLCQENYLIQEGEEITCKDGRWQSIPLCVEKIPCSQPPQIEHGTINSSRSSQESYAHGTKLSYTCEGGFRISEENETTCYMGKWSSPPQCEGLPCKSPPEISHGVVAHMSDSYQYGEEVTYKCFEGFGIDGPAIAKCLGEKWSHPPSCIKTDCLSLPSFENAIPMGEKKDVYKAGEQVTYTCATYYKMDGASNVTCINSRWTGRPTCRDTSCVNPPTVQNAYIVSRQMSKYPSGERVRYQCRSPYEMFGDEEVMCLNGNWTEPPQCKDSTGKCGPPPPIDNGDITSFPLSVYAPASSVEYQCQNLYQLEGNKRITCRNGQWSEPPKCLHPCVISREIMENYNIALRWTAKQKLYSRTGESVEFVCKRGYRLSSRSHTLRTTCWDGKLEYPTCAKR
B5: factor H-related protein 1 (FHR-1), recombinant (natural protein)
chain: EATFCDFPKINHGILYDEEKYKPFSQVPTGEVFYYSCEYNFVSPSKSFWTRITCTEEGWSPTPKCLRLCFFPFVENGHSESSGQTHLEGDTVQIICNTGYRLQNNENNISCVERGWSTPPKCRSTDTSCVNPPTVQNAHILSRQMSKYPSGERVRYECRSPYEMFGDEEVMCLNGNWTEPPQCKDSTGKCGPPPPIDNGDITSFPLSVYAPASSVEYQCQNLYQLEGNKRITCRNGQWSEPPKCLHPCVISREIMENYNIALRWTAKQKLYLRTGESAEFVCKRGYRLSSRSHTLRTTCWDGKLEYPTCAKR

What was measured:
[1] = molecular target: C3b (human, UniProt P01024); experiment: SPR
[2] = molecular target: the molecule itself; experiment: SAXS

Sequence of C3b (P01024 23-667, chain 1 of 2): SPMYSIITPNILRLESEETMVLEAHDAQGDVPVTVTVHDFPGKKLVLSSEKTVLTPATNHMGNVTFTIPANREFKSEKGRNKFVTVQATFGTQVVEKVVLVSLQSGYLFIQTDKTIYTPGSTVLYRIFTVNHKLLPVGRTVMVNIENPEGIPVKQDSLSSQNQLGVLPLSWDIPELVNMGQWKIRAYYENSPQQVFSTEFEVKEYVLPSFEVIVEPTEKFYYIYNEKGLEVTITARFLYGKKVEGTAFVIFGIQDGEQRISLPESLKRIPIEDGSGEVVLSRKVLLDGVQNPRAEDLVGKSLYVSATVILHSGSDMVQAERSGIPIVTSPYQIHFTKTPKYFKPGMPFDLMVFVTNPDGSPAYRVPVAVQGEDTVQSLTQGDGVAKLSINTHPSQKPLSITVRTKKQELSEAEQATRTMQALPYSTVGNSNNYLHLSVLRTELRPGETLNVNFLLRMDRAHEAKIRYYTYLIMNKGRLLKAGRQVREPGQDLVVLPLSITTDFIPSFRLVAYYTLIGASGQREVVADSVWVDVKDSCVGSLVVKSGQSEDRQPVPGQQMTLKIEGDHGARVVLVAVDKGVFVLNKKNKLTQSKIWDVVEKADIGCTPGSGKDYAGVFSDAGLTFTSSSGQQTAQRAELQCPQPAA
Sequence of C3b (P01024 749-1663, chain 2 of 2): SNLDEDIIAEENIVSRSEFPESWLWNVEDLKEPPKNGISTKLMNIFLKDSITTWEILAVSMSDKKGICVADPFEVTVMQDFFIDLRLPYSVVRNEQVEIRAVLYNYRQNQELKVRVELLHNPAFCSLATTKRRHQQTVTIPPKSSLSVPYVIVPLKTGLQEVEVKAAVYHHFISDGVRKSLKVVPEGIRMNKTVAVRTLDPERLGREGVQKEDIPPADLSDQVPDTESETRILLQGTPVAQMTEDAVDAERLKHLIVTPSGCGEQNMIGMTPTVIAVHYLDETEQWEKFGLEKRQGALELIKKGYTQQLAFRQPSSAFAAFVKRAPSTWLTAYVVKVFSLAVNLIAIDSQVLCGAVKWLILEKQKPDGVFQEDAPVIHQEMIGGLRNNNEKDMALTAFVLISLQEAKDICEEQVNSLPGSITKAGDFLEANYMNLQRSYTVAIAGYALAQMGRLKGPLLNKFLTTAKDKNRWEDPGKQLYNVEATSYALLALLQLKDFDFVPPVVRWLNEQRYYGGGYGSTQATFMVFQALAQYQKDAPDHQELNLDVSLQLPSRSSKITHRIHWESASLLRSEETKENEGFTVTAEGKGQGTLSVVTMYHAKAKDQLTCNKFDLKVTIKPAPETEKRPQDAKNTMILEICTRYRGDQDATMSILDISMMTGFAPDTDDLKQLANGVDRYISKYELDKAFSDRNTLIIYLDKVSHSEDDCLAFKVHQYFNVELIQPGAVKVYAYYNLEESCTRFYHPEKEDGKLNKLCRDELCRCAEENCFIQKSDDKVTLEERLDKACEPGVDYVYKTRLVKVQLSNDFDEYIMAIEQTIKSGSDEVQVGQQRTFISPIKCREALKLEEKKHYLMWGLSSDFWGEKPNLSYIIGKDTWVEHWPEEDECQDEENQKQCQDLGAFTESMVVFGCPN

Binder | binding result [1] | stoichiometry N [2]
B1 | binds | 
B2 | binds | 
B3 | binds | 
B4 | binds | 
B5 |  | 2
